# Measurements taken from the domain aggregation screens of Martell et al. (2025).
# Assay: soluble fraction after stress (log2 fold change); higher = more stays soluble; pooled small domains, quantitative proteomics
# Details: stress: 50 degC
# Outline: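 The measure of aggregation propensity here is the base-two logarithm of the fold change in the soluble amount of each protein after stress. A higher value means more of that protein stays in solution. Stress was applied at 50°C to pooled libraries of small protein domains, read out by high-throughput quantitative proteomics.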
row,Sequence,soluble fraction (log2)
1,HMDLQHQLTPRLKRLRLSGILETLEVRNQQAIAEKWSYVEFLTRLAEDEVERRDHKQLTLRLR,-0.499
2,HMQETMTNDEVISLTKAGLSSSIIIGKIRSSATNFDLSTDSLIKLKQAGVSDETVAAMLEAKS,0.0855
3,HMSIQMPDLSITPVTDAKKKIESLQLQYKEVGEYNDSVIAGYVIRTEPASGSYLNEDEEVIIYVSKG,-0.246
4,HMNDVGKVLNQLGERDRMILLLTYWDELPLKEAARILEVSENNAKIILFRARSRFASLWSAGS,-3.13
5,HMDPLPDEVQEVIDMVDGFKAMDELSEADKADVKAAYDAYNALSAEHKAMVPEHIVTFLNRAYDKLFD,0.0291
6,HMQIAGLDDIDNRIIDLLLKNGRASYSEIGAAVGLSRTAAKNRIRALEASGIIRGYQAILDPQA,-0.205
7,HMEYYEDEELDRFRGRNSDQYSDAEIEEFNEILTTLRSEEVAGWIRSLQLREIALPDELKDDVILLVG,-0.804
8,HMLSVTLTVLPQQAGERLDAFAAAESTLSRSAAAKLIEDGQITVNGARAAKNYRLRAGDVIEIDEPEPI,0.00149
9,HMANYTVNAYNNGGTGGSVNMRSGPSTNDGIVVRVPHGATVTGTKSGTWSYMTYNTYTGYMMSVYLDEQS,-0.157
10,HMLEKVLDNHIHKLRLQHKISQQELADAIGVSRKTISTVETGRFTPSVVIALKIAAHFSVSVEQVFTL,-0.964
11,HMNRKLKAKATREKIYKSAEKLFSQNDYNKVSVDAIVEAAGVAKGSFYVHFASKDALIAMLINDH,-0.179
12,HMDIKDRSGVTIDESNEAQQESIIRESWAEQKISGNVDNYIAYLKANGMLLETAKIELAALQEKDASLRE,0.0421
13,HMFDLATVKRVAEEAGMKFTIHPVELRAAHPNTAVLTLKSKAGRILVLKAASVGGGRIRVTEIDGVPAD,-0.423
14,HMTRNEFLTALRGRLSALPKEEQDAALKYYEEYFDEAESEEDAARQLGSPDSIAEKILADYA,-0.17
15,HMKSYQKITPATEGNYLTTYREGDDIKTYEGVKAMYTPADFDASSVREITPEEHQSYQKAKEQALQEETEQ,-0.225
16,HMKHVDLDNNERYIYGIIGSTKIHVDEVVEKSGMETKHVMAILTNLELKEAIKGIPGGFYLR,-0.506
17,HMLQFTYPRLHTKKSWYVDFMSFDPGAGKMRRKKFMLDGIPKITDRRKRAAELIEVLTKQLRAGWSPWVNV,-3.59
18,HMNTAIDGLIEKVGMFAMEKKAISVDQVKENFSINGEQAESVIKQLETIGVLGKKNEDGTHTVM,0.0766
19,HMIDFDEIEILSSSKIEKIENSEYLKSSIFEKDSNQYIYRLSFENRDQLKNFKKEIEDIDQIKKIDVTY,0.103

row,Sequence,soluble fraction (log2)
1,HMQIIETTVGRVLFNEKVPEAAGYINEVLTKKSLRDIIHGILKKTSVPETAAFLDEIKSLGYNFAF,-0.066
2,HMAQTSAELIIEYLKRNDGFMELTDKSPADEIYETFGISKKNFKMAVGSLYKNRVIEIGQNGIRLVE,-0.216
3,HMSEVTYQETLRLLRRAIDVLPQQSRQIILLGLSGKNNNEVAEMLGISVNTVKTLKKGAYKSLRNSL,-1.66
4,HMNDRERIGKRIAQLRMEAGISQYKLAELTGLAPGNIARIETGKYSTGIDILSKIGDALGYQLDFI,-1.04
5,HMTVKKLTINEDNSGRRIDNYLLSIFNSLPRSKIYNIIRKGEVRVNSSRIKPNYRLEQGDLVRIPPNLEFT,0.0953
6,HMEDELFSVARAAFPEYASKIHMNYGSTVQSIARQSGVLTVSETKQLNENQQISYLEYSNGAVVLALA,-0.0402
7,HMATEYIIPTVTNKKLEEAIGIAQLRGFEISVDEYKPSDIDEGTVLEQSPAAGTNAKQGDTISVTVSSG,0.294
8,HMSLSDADVERLLEVAIDIESLEEREGLYYQANESEPYSGWGKLMYDSGQVERLVPYKDGRWEGLWTIW,-1.04
9,HMGRFAETVEHIVAAQLARRQGIPTMEQFASFFNVSRATFQRRLGEEGETLEQIKQRVRLRLALELLHP,-2.86
10,HMHEIVDTVLQVKQSVEADPLIAPALKNKEIVFQLNAKGVFQFKNAVIQVASALGISKNTVYMHLRNNK,-1.89
11,HMSETAVTYNEDFEADGSLRPNEQAVLDAFTGVLKLTVSELEKKTGLRNVVPVVASLMAKGAVEVSEELK,0.0501
12,HMFIGFLHQLKEAGVPVSIREYLDFLSGLDKGITNLNTNSFYHFARASLVKDERHYDRFDRTFSEFFEGAL,-3
13,HMSITKDNLSIGTNIRISGFSDIGRIISIPNKGNQVQVQIGSAKMNIKINSIVEIIKEEKDFNKNISN,-0.102
14,HMLSDAAAMESIAYEAIRQMEPDTYYIIGAGTTTRGIMEVLGLKNTLIGVDLIRNKELVANDLGGKELLSY,0.0353
15,HMEVTENQEKHAYQEAMDQALRFLAPRFLSRAELTRKLLQKEHDRDVIDAVIDRLEELDYVDDAR,0.0309
16,HMLYITEIQKKIMDAFLVVANESNSGTRITMNEIANKVRMTPQAIYRKHFKSVIEISDTIRD,-0.531
17,HMNHYIGVDRAKEIALNHANLSETDVVFTKEKLENDDGGAEYEIEFHSGRTEYDYTIDAASGNIIEYDVDY,0.421
18,HMDLDLNIDNYNFDDLLNLFGLKMKFSEDDLKKAKRSVLMTHPDKSGLDKQYFMFFTKAYKMLSQIYYFR,0.42
19,HMDYVKTLGETINVRVAASTDADIYKLLPGGEILNRVGYNEEWTKVMVDGSTFYVYSEYVIQTEPPA,-1.37
